The text below walks through data of the NTF2 design screens of Basanta et al. (2020).

This data set is described as follows: protease stability score; higher = more stable; yeast display proteolysis, trypsin and chymotrypsin.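 Note: log10 excess protease needed over predicted unfolded state with 0 meaning unfolded.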

The sequence “DEEFNKVLEEALHAMHKGDPDKLNKNLDEDAKIKYGDKTVHGREDATKLLETIVKNARIQIDSFRVTSRGEKAVADVRLRYRINGKPIDVKMIIYAKNDNGRIKEVEYKIDPDELRKVEG” registered a protease stability score of 1.28.

The sequence “DEEFQTEAEKMFTNQRNNNEDHLKDQFDKDAKVQVGDKEFHGTERYEETFRTQMEHMRYDIDSFTARVHGEDLDVDVSFQFESNGKPDRNRAKIIATYHNGRIKHLRVDQDQ” had a protease stability score of 0.073.

The sequence “DEEFRHKVAKALQSNNEHQLHELMDKDAKMTIGDKTVHGREEIHRVLRRLREQADHWHVSRFKIHNGKIVADVQVHINGQTYHMTITAFARGDRIERLEYTVRDEDLLRKIQRWLG” returned a protease stability score of 1.97.

Consider “DEEFRHQVKQFLRAETRGNEETLKEQMDKDATFEVGDRVINGHEKYASDQHERRKEIRVEIKSMEVDAQGNTADYEIDFVEHFDGKPHRRKVRASIRVHNGRVKEIVEKDSQ”, for which the protease stability score was -0.184.

As to “DEEFVRTVVKAHEENDEKKFNDLMDKDVKVDIGNKELRGRDQARKQLHHLRDKIDHYHVKSVTFKGNRIQIKAEFQVDGRRISAIYQQDVHNGHITSFRVSVTDPRDKHKLDEIVG”, the protease stability score was 0.151.

For the sequence “DEEHAEELMKRWMEVVKKGDKDTVKELYKPNGTWRNVDEEHQGVEQVQKMMKKIQDVGVEFQVRKAKVEGDRVTVVYDVRAGDVEVTFTVQMDVDGGRVELVQVKVDEDAKKAVKTG”, the protease stability score turned out to be 0.034.

Consider “DEEHAESVKTLFKNLRTNNEDEVEKLVDPNARMKYGDKQVHGRDEIKHMIQRLKDELHIEMDVKRMNVHNGQADLKFDITVVRNGKPDTAKANVRVQFSNGRIHDFTVQLNK”, for which the protease stability score amounted to 0.347.

“DEEHAHEMLKVVKVLIEGDPDQAHDMVDPNARFKVGDQTFSGRESFRNHVRHTNEESSLHLKSLDAQDHGDKVTIKVEFVRDTNGNPRHMRLEVRARLHNGRVTHAEFEDRK” returned a protease stability score of -0.001.

“DEEHAKRINENIKHGNWDELVKQFDENAKLVIGDKEYHGREEIKKAMDLFKKHADHFEIKSYDNQGEKMSATYVIQVNGKRATVKMRVTFQGDKVKRYELHATSEHNERILKEAIE” displayed a protease stability score of 1.12.

In the case of “DEEHARELVENFKRNNWQEFEKMADKDVRAHVGDWNVHGRETFSRMMKHLVDQIDHISVDSVDVDEDTVEIHFSFDINGQDVTAVLRVELHNGKIKSMELDARDENARDVLRKVWR”, the protease stability score came out at 0.099.

For the sequence “DEEHARTFMEEWQKAVQKGDHKRAQEIYKPNVEWVAGDKQTQGTDVVREMLEKAQKMGVEFQVRRAEVEGNKVRFQYDVRHGNETVTFHVEVTVQGGKIDRVQVKFDEKAQKVQKEG”, the protease stability score is 1.07.

The sequence “DEEHDEKVARSVARNITHGNEKSLRKQLPEDARVVYGDKTYHGRERAANVAKEFDERADHNRVDDLRVQNGRAELIFIVNVDGKNVRAVMIVDVHNGKAKLVMIKWTNPDDQRDLEK” had a protease stability score of 0.159.

“DEEHELDMARKMFEAVKQGDEEEVQRNAPPDVRMEIGDRTYHGREQVRKAAKEFQKRVDHMQLDSVKLHNGDVHAKVILNINGKNNDVVVQIHIDNGRITELRFKTS” returned a protease stability score of -0.06.

Take “DEEHIEEVQRRFISAFKDGDEDQMQRQMDPNVKLVIGDTTIHGRESAAKSLANIVRKVDHVDVESYEVRGNQASMIMRVEINGKDDRLDFQIEIHNGHIKRLEIQSS”: the protease stability score stood at 0.692.

Sequence “DEEHITNVVKKMVNALRTGDPDTARELADPNVTAEYGDKEIRGREEVSKMVKLLHKQADHVTVKDVKVTNGHMEVRRRQHVNGKEIQMTLEARVHNGKIQEMRVHKK” came in with a protease stability score of -0.305.

Sequence “DEEHKAKDAARRMQEVARRNDPTQAKEMIPPDAKVRVGDKDVHGREQVVTLFKKIADQADHLDIQVSSVDIQGDRAVVVFNLRYTINGQDRRNRVVVIFRDHNGHVMILEVQEQ” had a protease stability score of 0.514.

The sequence “DEEHLKRVNETVMDIVKNNDPNQLREMVDPNVKVDVGDQRVHGRDKAAEVVKEWEKHVDRVTIRHVSVHNGRVRVVFQLESNGKTKDVQILFVYENGRIHSMRFTSQ” registered a protease stability score of 0.933.

In the case of “DEEHLLSRLAKEFWEDWKQGDPNKASKQADKDVHVQIGDKEYHGREHLERLFKEVKKDVDHNTSRITDLKVDENHIDLKVSFSMNVNGQNITMVVDVKMRIVNGHAKAVDIKYK”, the protease stability score turned out to be 1.37.

“DEEHMEHFREVMEQNDPDELNELVDPNARLVIGDKKYHGRDTVVKLIKRFWSKADHNRLRSLTIRNGRASWRMQATVNGQRLDFTVEAVFHNGRLKTMRFKFRDRSQVDHFRRLLQ” came in with a protease stability score of 1.74.

Take “DEEHMQELAEELVKVMKRGDFKRYLDLASENAEVTYGEKSVRGREDLHKMQEELEKKVDHIHMKDFRVSGNQIHLFFVVHHDGRSREVVVTIEYHNGRITSVTYDEK”: the protease stability score is -0.075.

“DEEHNERVAEEINRIMRDGDEERFEEMVDEDVKLQVGDKTWSGREEARKWQHEMWNSVDHVHIQDFEVSGDEIVIHFQLEHNGRREQAVVIVRFSNGRIKMMTIETQ” yielded a protease stability score of 1.41.

The sequence “DEEHNKEVMENIITGNSDEMRKMVDPNAQLEIGDKRYHGRDQIDTFEHLMRDRVDNLEVKRYDLQGDKVHVDYVFVVNGKHARVRVSFSVKNGRFTQIRIEVTDEEVEKILREVQK” returned a protease stability score of 1.17.

Regarding “DEEHNQRLAERVAKVVQSGDEEEFEKQADPNVKVVYGDKTYHGNSEAMNAIKQIRKQADTVSVQSVDVHGDTARIQMRFDVNGKDRIVKVTVQVDNGRVVEVRFHET”, the protease stability score worked out at 1.12.

In turn, “DEEHQHSLARTLATALRTGDPEKMKDLADKDVKVVVGDKHIKGRKDAKKWAKDWRDRYDHAQVDDVNVQGENVRIVMNVEVDGHNVVVVMTAIIDGDQVKNVKVTARNEEQEKKMKK” yielded a protease stability score of -0.268.

Sequence “DEEHQKEVLEHMTTNDPQFLRDLADEDVRVNVGDKEVKGREEFRRVLEHELRRIDRIQVKRVHVEGEKFKIDRKVTFDGKTLDYEVNFTIHNGRLKQMRVQARSEDLEEKMKELHG” gave a protease stability score of 0.36.

Take “DEEHQKHFEQFVKAMETGDEERLAQLVDKDVEISYGDKTIHGREELRKRVREIKEELRLTMDFKRITVRGDKVQANFKASMNHNGQPVSFKAHVTVTAHNGTIKSVSLSNHK”: the protease stability score is 1.1.

“DEEHQKIAKEALEQIQTGDEDEIKRQFDPNAKLQVGDQSVHGRETAAKFVRDRRRQMRIHLDDVDVKAKNGHVRLMMDVEVDHNGHPTKHRQVMIVKIHNGQIKKMTVNERD” gave a protease stability score of -0.028.

In turn, “DEEHQKKMAEDFVKALERGDKDQFHSLFDENAKMQYGDKTVHGREDVKRWVEHVKERVDHLKVDKIEVSGNKVVLKMVINVDGQRLDMVITIHLHNGHIQSAEARVTDPDQERKANS” had a protease stability score of 1.26.

In turn, “DEEHRAKTAQDDIRRINQNGDPDQMHRLADKDARIQIGDTFLHGREQIKEQMERDNKKFDHQQVEIKKVEVRGDKVRIVAEIKADFNGDNKTTRFVIYLTVKNGRVKMKKVTDG” registered a protease stability score of -0.194.

For the sequence “DEEHREDSIRKVFEVLQTGDPKRFRENVDKNAKARVGDREVRGTKAADTFAHNIVKRADHVRIRRVHVHNGVVVVTEQQTVNGKEVIMVVFMEMNNGKMKLVEVNPEQLKELEG”, the protease stability score was -0.394.

Regarding “DEEHVDQLLRKIFEILRNGDEKKLQDNFDPNVKATYGDRDITGMHSIAKTLAELFQRADHVNLRSMEVNGDKMRMQVSVQVDGRRATLEVNMRQHNGKVKELNLDPRRIKQFES”, the protease stability score is -0.169.

As to “DEEHVDRVVKVLQHNDEEQFKRNAPPDARINIGDKQYRGREDAVEALSELWHRADHIRLHDITVRGNKIEMDMVFVVNGQHVRVVLDVEMRNGKVEQIDAHVTDEKDEENLQRAMD”, the protease stability score turned out to be 0.393.

On to “DEEHVKKIIKKVADDLQRGDEDNLKHLMDKDVRVEIGDKEVRGKDEAAKELAKFLSRADHFQVDHVDVKGNNARIHVLVNINGRERRVTLILTMHNGRLKNVRFDPENEQTLRN”, for which the protease stability score was 1.18.

“DEEHVKRMATTFAKQMRHNNPDDIMKQMDKNVQLRYGDKEVEGDENVRRRLKTLHDQVDHVEVKDYTAHGNSIRIVVRLEVNGKTANFVLIVIVENGRVLKANIDPKALDSYEK” displayed a protease stability score of 0.253.
